Experimental data from US20250339531A1, “DUX4 POLYPEPTIDES AND NUCLEIC ACIDS FOR TREATING INFLAMMATORY AND AUTOIMMUNE CONDITIONS” (Fred Hutchinson Cancer Center, priority 2021, published 2025).

B1: P10809 (protein, UniProt P10809 1-573, looked up)
chain: MLRLPTVFRQMRPVSRVLAPHLTRAYAKDVKFGADARALMLQGVDLLADAVAVTMGPKGRTVIIEQSWGSPKVTKDGVTVAKSIDLKDKYKNIGAKLVQDVANNTNEEAGDGTTTATVLARSIAKEGFEKISKGANPVEIRRGVMLAVDAVIAELKKQSKPVTTPEEIAQVATISANGDKEIGNIISDAMKKVGRKGVITVKDGKTLNDELEIIEGMKFDRGYISPYFINTSKGQKCEFQDAYVLLSEKKISSIQSIVPALEIANAHRKPLVIIAEDVDGEALSTLVLNRLKVGLQVVAVKAPGFGDNRKNQLKDMAIATGGAVFGEEGLTLNLEDVQPHDLGKVGEVIVTKDDAMLLKGKGDKAQIEKRIQEIIEQLDVTTSEYEKEKLNERLAKLSDGVAVLKVGGTSDVEVNEKKDRVTDALNATRAAVEEGIVLGGGCALLRCIPALDSLTPANEDQKIGIEIIKRTLKIPAMTIAKNAGVEGSLIVEKIMQSSSEVGYDAMAGDFVNMVEKGIIDPTKVVRTALLDAAGVASLLTTAEVVVTEIPKEEKDPGMGAMGGMGGGMGGGMF
modifications: full-length
B2: P31947 (protein, UniProt P31947 1-248, looked up)
chain: MERASLIQKAKLAEQAERYEDMAAFMKGAVEKGEELSCEERNLLSVAYKNVVGGQRAAWRVLSSIEQKSNEEGSEEKGPEVREYREKVETELQGVCDTVLGLLDSHLIKEAGDAESRVFYLKMKGDYYRYLAEVATGDDKKRIIDSARSAYQEAMDISKKEMPPTNPIRLGLALNFSVFHYEIANSPEEAISLAKTTFDEAMADLHTLSEDSYKDSTLIMQLLRDNLTLWTADNAGEEGGEAPQEPQS
modifications: full-length
B3: HNRNPH1 (protein)
chain: MMLGTEGGEGFVVKVRGLPWSCSADEVQRFFSDCKIQNGAQGIRFIYTREGRPSGEAFVELESEDEVKLALKKDRETMGHRYVEVFKSNNVEMDWVLKHTGPNSPDTANDGFVRLRGLPFGCSKEEIVQFFSGLEIVPNGITLPVDFQGRSTGEAFVQFASQEIAEKALKKHKERIGHRYIEIFKSSRAEVRTHYDPPRKLMAMQRPGPYDRPGAGRGYNSIGRGAGFERMRRGAYGGGYGGYDDYNGYNDGYGFGSDRFGRDLNYCFSGMSDHRYGDGGSTFQSTTGHCVHMRGLPYRATENDIYNFFSPLNPVRVHIEIGPDGRVTGEADVEFATHEDAVAAMSKDKANMQHRYVELFLNSTAGASGGAYEHRYVELFLNSTAGASGGAYGSQMMGGMGLSNQSSYGGPASQQLSGGYGGGYGGQSSMSGYGNQGAVNSSYYSSGSRASMGVNGMGGLSSMSSMSGGWGM
B4: O95373 (protein, UniProt O95373 1-1038, looked up)
chain: MDPNTIIEALRGTMDPALREAAERQLNEAHKSLNFVSTLLQITMSEQLDLPVRQAGVIYLKNMITQYWPDRETAPGDISPYTIPEEDRHCIRENIVEAIIHSPELIRVQLTTCIHHIIKHDYPSRWTAIVDKIGFYLQSDNSACWLGILLCLYQLVKNYEYKKPEERSPLVAAMQHFLPVLKDRFIQLLSDQSDQSVLIQKQIFKIFYALVQYTLPLELINQQNLTEWIEILKTVVNRDVPNETLQVEEDDRPELPWWKCKKWALHILARLFERYGSPGNVSKEYNEFAEVFLKAFAVGVQQVLLKVLYQYKEKQYMAPRVLQQTLNYINQGVSHALTWKNLKPHIQGIIQDVIFPLMCYTDADEELWQEDPYEYIRMKFDVFEDFISPTTAAQTLLFTACSKRKEVLQKTMGFCYQILTEPNADPRKKDGALHMIGSLAEILLKKKIYKDQMEYMLQNHVFPLFSSELGYMRARACWVLHYFCEVKFKSDQNLQTALELTRRCLIDDREMPVKVEAAIALQVLISNQEKAKEYITPFIRPVMQALLHIIRETENDDLTNVIQKMICEYSEEVTPIAVEMTQHLAMTFNQVIQTGPDEEGSDDKAVTAMGILNTIDTLLSVVEDHKEITQQLEGICLQVIGTVLQQHVLEFYEEIFSLAHSLTCQQVSPQMWQLLPLVFEVFQQDGFDYFTDMMPLLHNYVTVDTDTLLSDTKYLEMIYSMCKKVLTGVAGEDAECHAAKLLEVIILQCKGRGIDQCIPLFVEAALERLTREVKTSELRTMCLQVAIAALYYNPHLLLNTLENLRFPNNVEPVTNHFITQWLNDVDCFLGLHDRKMCVLGLCALIDMEQIPQVLNQVSGQILPAFILLFNGLKRAYACHAEHENDSDDDDEAEDDDETEELGSDEDDIDEDGQEYLEILAKQAGEDGDDEDWEEDDAEETALEGYSTIIDDEDNPVDEYQIFKAIFQTIQNRNPVWYQALTHGLNEEQRKQLQDIATLADQRRAAHESKMIEKHGGYKFSAPVVPSSFNFGGPAPGMN
modifications: full-length
B5: Q92973 (protein, UniProt Q92973 1-898, looked up)
chain: MVWDRQTKMEYEWKPDEQGLQQILQLLKESQSPDTTIQRTVQQKLEQLNQYPDFNNYLIFVLTKLKSEDEPTRSLSGLILKNNVKAHFQNFPNGVTDFIKSECLNNIGDSSPLIRATVGILITTIASKGELQNWPDLLPKLCSLLDSEDYNTCEGAFGALQKICEDSAEILDSDVLDRPLNIMIPKFLQFFKHSSPKIRSHAVACVNQFIISRTQALMLHIDSFIENLFALAGDEEPEVRKNVCRALVMLLEVRMDRLLPHMHNIVEYMLQRTQDQDENVALEACEFWLTLAEQPICKDVLVRHLPKLIPVLVNGMKYSDIDIILLKGDVEEDETIPDSEQDIRPRFHRSRTVAQQHDEDGIEEEDDDDDEIDDDDTISDWNLRKCSAAALDVLANVYRDELLPHILPLLKELLFHHEWVVKESGILVLGAIAEGCMQGMIPYLPELIPHLIQCLSDKKALVRSITCWTLSRYAHWVVSQPPDTYLKPLMTELLKRILDSNKRVQEAACSAFATLEEEACTELVPYLAYILDTLVFAFSKYQHKNLLILYDAIGTLADSVGHHLNKPEYIQMLMPPLIQKWNMLKDEDKDLFPLLECLSSVATALQSGFLPYCEPVYQRCVNLVQKTLAQAMLNNAQPDQYEAPDKDFMIVALDLLSGLAEGLGGNIEQLVARSNILTLMYQCMQDKMPEVRQSSFALLGDLTKACFQHVKPCIADFMPILGTNLNPEFISVCNNATWAIGEISIQMGIEMQPYIPMVLHQLVEIINRPNTPKTLLENTAITIGRLGYVCPQEVAPMLQQFIRPWCTSLRNIRDNEEKDSAFRGICTMISVNPSGVIQDFIFFCDAVASWINPKDDLRDMFCKILHGFKNQVGDENWRRFSDQFPLPLKERLAAFYGV
modifications: full-length
B6: P42224 (protein, UniProt P42224 1-750, looked up)
chain: MSQWYELQQLDSKFLEQVHQLYDDSFPMEIRQYLAQWLEKQDWEHAANDVSFATIRFHDLLSQLDDQYSRFSLENNFLLQHNIRKSKRNLQDNFQEDPIQMSMIIYSCLKEERKILENAQRFNQAQSGNIQSTVMLDKQKELDSKVRNVKDKVMCIEHEIKSLEDLQDEYDFKCKTLQNREHETNGVAKSDQKQEQLLLKKMYLMLDNKRKEVVHKIIELLNVTELTQNALINDELVEWKRRQQSACIGGPPNACLDQLQNWFTIVAESLQQVRQQLKKLEELEQKYTYEHDPITKNKQVLWDRTFSLFQQLIQSSFVVERQPCMPTHPQRPLVLKTGVQFTVKLRLLVKLQELNYNLKVKVLFDKDVNERNTVKGFRKFNILGTHTKVMNMEESTNGSLAAEFRHLQLKEQKNAGTRTNEGPLIVTEELHSLSFETQLCQPGLVIDLETTSLPVVVISNVSQLPSGWASILWYNMLVAEPRNLSFFLTPPCARWAQLSEVLSWQFSSVTKRGLNVDQLNMLGEKLLGPNASPDGLIPWTRFCKENINDKNFPFWLWIESILELIKKHLLPLWNDGCIMGFISKERERALLKDQQPGTFLLRFSESSREGAITFTWVERSQNGGEPDFHAVEPYTKKELSAVTFPDIIRNYKVMAAENIPENPLKYLYPNIDKDHAFGKYYSRPKEAPEPMELDGPKGTGYIKTELISVSEVHPSRLQTTDNLLPMSPEEFDEVSRIVGSVEFDSMMNTV
modifications: full-length

Tested on: proteins that co-immunoprecipitated with DUX4-CTD constructs expressed in MB135 myoblasts
Assay: LC-MS of proteins co-immunoprecipitated with DUX4-CTD (Table 1) and western validation
Assay type: binding, human
Set-up: key to 4. mL1dL2 + Dox + IFNG / 4. + IFNG mix / 4. longCTD + Dox + IFNG / 3. + IFNg + Dox longCTD / 3. + Dox longCTD / 3. + IFNG longCTD: peptide-spectrum matches (PSMs) per protein
Details: for 4. longCTD + Dox + IFNG: LC-MS counts of the listed protein co-immunoprecipitated with DUX4-CTD bait longCTD; for 4. + IFNG mix: LC-MS counts of the listed protein in anti-FLAG co-IP, experiment 4, IFNG, no doxycycline, MB135 myoblasts; for 3. + Dox longCTD / 3. + IFNg + Dox longCTD: bait longCTD; for 3. + Dox longCTD: experiment 3, Dox only; for 3. + IFNg + Dox longCTD: experiment 3, IFNg + Dox; for SUM of PSMS: sum over all samples
How it was run: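 Two independent experiments compared uninduced, doxycycline and doxycycline+IFNG MB135iDUX4-CTD (plus MB135iDUX4mL1dL2) myoblasts. Anti-FLAG pulldowns (3 h, 4 °C) were eluted in LDS buffer for western validation or with FLAG peptide for trypsin digestion and Orbitrap LC-MS; hits needed ≥2 PSMs in both experiments, ranked by total PSMs.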

[1] = LC-MS counts of the listed protein co-immunoprecipitated with DUX4-CTD bait mL1dL2, experiment 4, Dox + IFNG

Molecule | 4. longCTD + Dox + IFNG (experiment 4, Dox + IFNG) | 4. mL1dL2 + Dox + IFNG [1] | 4. + IFNG mix | 3. + Dox longCTD | 3. + IFNg + Dox longCTD | SUM of PSMS | 4. mL1dL2 + Dox + IFNG (LC-MS value per protein co-immunoprecipitated with DUX4-CTD construct mL1dL2 in MB135 myoblasts, + Dox + IFNG, kind of count not given)
B1 | 5 | 4 | 5 | 1 | 2 | 17 | 
B2 | 6 |  | 1 |  | 1 | 8 | 
B3 |  |  |  |  |  |  | 7
B4 | 1 | 3 |  | 4 | 8 | 16 | 
B5 | 3 | 6 |  | 1 | 4 | 14 | 
B6 | 19 |  |  |  | 3 | 43 | 
